Consider 68 sequences from the domain aggregation screens of Martell et al. (2025).

The series is described as follows: soluble fraction after stress (log2 fold change); higher = more stays soluble; pooled small domains, quantitative proteomics. The following applies: stress: 50 degC. The essentials:
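Pooled custom libraries of small protein domains were each held under stress at 50°C. The read-out, high-throughput quantitative proteomics, tracked how much of each protein stayed soluble. This is reported as a base-two log fold change used to indicate aggregation propensity. Higher values mean more protein remains in solution.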
For the sequence “HMKLHPRDQERTRAISARGERLYAVTVGDLRRRIGEMLEWFGRQIESQEPMRVAKAARRITDFFDQVEAFT”, the “soluble fraction (log2)” value was -2.06.

For “HMKKHALFTLFKHHNANGTTVWYARFWDDATQRYAIARSTGVLAQGKRERHDEAITVAREMASSIQFS”, the “soluble fraction (log2)” value is -2.6.

On to “HMEVSEGEIREKVESVFSSNPRQAYNYKQISKKLNINDKSERQIVWDVLRKLAGSGKIQEVEHGRFRARAE”, for which the “soluble fraction (log2)” value was 0.122.

As to “HMLELTGEEEFVIRTLTRQGDLHINALVVETDIPINRMISLLFELEMKGVVKALVGGVYHLLG”, the “soluble fraction (log2)” value is -2.04.

“HMNSNSLSFSKFMQEVEAGRVIEVQIKGNDIQGELSDGSKFKTYSPNYPNLVDKLSENKVSIVATPL”: the “soluble fraction (log2)” value is 0.038.

With “HMSFPFLMPNLEGLQLDQVRVILEENGLEIGQENYQPDSKFGPGTIINHQPSVDTVVQTGQKVNLQISGTD”, the “soluble fraction (log2)” value was 0.112.

On to “HMGNPSGLPLPRFASTRSEPINVRVGPGQKYDIAWTYLKSGIPVEIIQEFDTWRKIRDFDGAEGWIHQNLL”, for which the “soluble fraction (log2)” value is -0.937.

On to “HMADEEEIMVPQVVGKTYDEAKSELENAGFKVEKNEKTSDKASGTVISQSINGGAKKGTSVTLTVSKGN”, for which the “soluble fraction (log2)” value is 0.149.

On to “HMIELEGVISSVLAGTMFKVKLRGNGHEVLAHISGKMRKKFIRLVIGDAVKIEMSPYDMDKARIVYRI”, for which the “soluble fraction (log2)” value was -0.00875.

Turning to “HMSEQTLEDVRRLIEHLPESQKEVVKMRYYQDLSFKEIADLKGISINTALGRMHYAINNMRKMAKEYGL”, the “soluble fraction (log2)” value was -1.54.

Take “HMRVDDITDTILNVLKEQGGFISVTDKSSPETINKLFGVSKKTYKKAIGAIYRKKLIIIEDDGIRLNS”: the “soluble fraction (log2)” value was -1.84.

For “HMPGLITLEAAKTTALNHAKLTADQVTFVKQKLDRDDGRQVYEIEFYTSDYKEYDYEIDAVSGLILEVDYD”, the “soluble fraction (log2)” value was -0.671.

Regarding “HMHIVQEGDSLYGIARQYRITVEELRSLNALETADVIVPYQKLYV”, the “soluble fraction (log2)” value is -0.942.

On to “HMRDSYEVEGRIASVSPAAGTFVVAGVTVDYTGARFVGGTVAQLAPGVKVEVEGRRLANGTLQAREIEFD”, for which the “soluble fraction (log2)” value worked out at 0.00935.

As for “HMLEVTQTDVKMYTTSGTPVYAAPDLNSAIVVYLERFVNVTVTGITDNGFYRVNLNGDYYIPGPYLISSV”, the “soluble fraction (log2)” value was -0.369.

As for “HMPGEIKKIPINSISYQDLKQHPYFDAYLAKQVIKYRETKGRIENIEQFREATRAYQSLIEKVTPYLDFE”, the “soluble fraction (log2)” value was 0.14.

As to “HMSRLMIVTPDGRIMDDVPEFGEVRTTTDVNGRVLVLDRNNVVIGFEMTPREYRREFGRNPF”, the “soluble fraction (log2)” value is -0.643.

Turning to “HMGVLSPRQSQILALVAQGLGNREIAERLHIAPTTARDHVQAIMRRLNVNSRAAAAVMGVKLGLI”, the “soluble fraction (log2)” value is -0.625.

Consider “HMQRAEQLPAELAAVFRAETEAWGFFERQPPGYQRVAIHWVASAKQEATRLRRLAKLIEESAAGRR”, for which the “soluble fraction (log2)” value is -1.7.

On to “HMTVTMADISQAYNEKRYLTTISLSNTYLTFAKPTTELLSIRYRTYFIIGKYAESLTEIAKL”, for which the “soluble fraction (log2)” value is -0.173.

On to “HMNFTETENRIYEEILKNVKQHKKKTVVQIAEKVDVAPSYVIKVAKKLGYSGLNEMWYSLSGIY”, for which the “soluble fraction (log2)” value is -0.54.

For the sequence “HMAAVEDLPVKSVNGKKYHYYTVQPKESLYSLSHKLGISRQEIIKYNPGVEDGLKAYEDLLFPYTPK”, the “soluble fraction (log2)” value was found to be 0.105.

In the case of “HMPEGTYLEKLAIENNNLQLIGLSREASQLVQLLQDAPQWRKVNLTGVLQADGAASGRDRFTMTAELQ”, the “soluble fraction (log2)” value came to 0.0683.

Turning to “HMGSGLAAAEKIRKAHPEIKIVVATSLIDTQVLARAKAVGADSLWYKDGDEGTLMQVVRRTMAGDHIFP”, the “soluble fraction (log2)” value was -0.00704.

Take “HMNPMLEPAGEIRLSDGVLLRWQSERLPGDDTVRGPGSLYELGLYRVKVRVSAPQQGVRESSVELAGWRQV”: the “soluble fraction (log2)” value was -0.0771.

As for “HMVSTEDEISDKLLLDFALEKLSENEKQIVKLRYYNSLTQSKTAEILNMTQVQVSRSEKKILAKLRGII”, the “soluble fraction (log2)” value is -0.267.

As for “HMAQLPADMSRVKSADVSDAQLREFVQKAQASGQTETQLFREFSRRGMPTNEINILRSRMVGLQNN”, the “soluble fraction (log2)” value turned out to be 0.0388.

On to “HMASDLPTVTIMGKTFYTYVAKKGESFFGIANRFGWDPELLVKTNRELETPLDKGALIYYPVPKKPK”, for which the “soluble fraction (log2)” value was -0.199.

On to “HMLAAGTSLTVDTESSNLNIRQEPSTEGVILGKAAKGEVVTLVEQSSDEWWKIKTKDGEEGYAYARYLR”, for which the “soluble fraction (log2)” value is 0.203.

With “HMPIQLLSEKYMDEHWDELDKDEVSLYQNMSIRFLLKHEDDINWKLYSTNPFISIDTIDFFKDKISWVNI”, the “soluble fraction (log2)” value is -2.57.

In the case of “HMPLAQRFGLTVAQARVLDLLAEGRSNRQIGELLGLTEGTVKIHVSAIMKAMGVSNRAEAALMANRKR”, the “soluble fraction (log2)” value is -0.717.

Regarding “HMPRTEILMVDEEMEGERLDAFVAEQLDELSRSLVKTLIENGEIRVDGKQQKPSYRLKAGEEIIVEIPA”, the “soluble fraction (log2)” value amounted to 0.208.

For “HMDREQLELYVGEVRVLQVGELRRIAIGNGKVLQASALDRGQLLLIPEAPGQSVLYLWTRDGTERHLSISV”, the “soluble fraction (log2)” value was -0.203.

For the sequence “HMALHDTLSYEEYLDLGLNGKADSAEKRELVAHALHLGRPNAKTLYKRLNMLQLNRKDVAALLEQ”, the “soluble fraction (log2)” value was determined as 0.0249.

In the case of “HMLKNYATPEQRAQLDMLKDKGIIGENELMQLGKYPSQDKASEVLENHADAVKMLDSDEISNRAEAIRSHD”, the “soluble fraction (log2)” value is 0.134.

“HMTTMNSADLIKELEKAGWTLRGVKGSHHIYTHPARGGHLSVPHPKKDLGAGLARQLRKQAGL”: the “soluble fraction (log2)” value was found to be 0.125.

Turning to “HMFPDRLRELRKGRNITLETLAEEMNKHLEPGQKPNTAAQIGNWERGDRSPSYIEVRKLADFFNVSMDFL”, the “soluble fraction (log2)” value is -0.636.

Turning to “HMLSVKEQTYQIIKEKILNQEYPAGARININELAEELGISNSPIREALSLLEQQGLVISNRSSGATVT”, the “soluble fraction (log2)” value came out at 0.00507.

As to “HMIETLGDATFKRLKAMILDGTLEPGTRLSEKKFADHLGVSRTPVREAIGQLVSEGLAKRSAGSAPVVSS”, the “soluble fraction (log2)” value came out at 0.0372.

Regarding “HMQYTTDEVRERVLSVLNQLLLRWIVREGKDMFNIQANAVEISEGIKGELNTELEKIGLAATGFQIDSV”, the “soluble fraction (log2)” value was -0.52.

As to “HMSAISSARKEKIIEYLTDHGSARSSEIAEYVDLRPSRVRDYLGELVREDIVVAEGANRNRTYRLK”, the “soluble fraction (log2)” value amounted to 0.0293.

In the case of “HMAKLGITQREQEVLQLLVTGKTYKEIAAELFISLPTVKTHVSNIYSKAKVRNRLELSNLINYI”, the “soluble fraction (log2)” value is -2.73.

Regarding “HMNSKQELAYQTIRARIVDGSYGPGYRIVIDEVARELGVSPIPVREAVRRLEAEGLITYTRHAGARVVA”, the “soluble fraction (log2)” value is -0.184.

Consider “HMRDSYTFEDIEKLKDSYLQDSEKALEKLISIYEDTNQSLAIRTAALDIITDSQDPTFKLALEKIIS”, for which the “soluble fraction (log2)” value came out at 0.0263.

On to “HMERLSNQVYAILKEMIADYRFNPGARINVEQIAKEVGASRTPVWEAVHRLVQEGLLENIPNRGVFML”, for which the “soluble fraction (log2)” value is -1.41.

In the case of “HMSYYKEMIRLADSIADKAHEGQTDRNGWPYISHPRRVALGARKLVSEMASSTSPDTSLEELKAEVQIVAL”, the “soluble fraction (log2)” value is -0.288.

In the case of “HMDYAQAQRQAESAIALRPDVERLRLLLIYALQKQGKLREAEQAAADAIKSGLDTPALRQARANLRP”, the “soluble fraction (log2)” value was -0.264.

“HMGKELSTVVVPDLTGLSVLEARNVLTKVGLQLTPSGAGIAFKQIPTPGTRLTLGATVTVYFVATGY”: the “soluble fraction (log2)” value worked out at 0.0979.

“HMVQVHEWTNKAGRTIKAKFVRGDAQSVTIFLGGRNFVLKIADLSEESQALARKLSAPPPPP”: the “soluble fraction (log2)” value is -0.607.

As for “HMHTDQVLVMTRAVGQGEIVRNTDVGLTSVAVDRAVTTIPASQLDEIVGRHALVDLSAGQLLGSHSVGA”, the “soluble fraction (log2)” value is 0.0253.

Regarding “HMKSFDERQAALNELAKVIEGTGRKAEQDAEFRREQNQLMIDKIDEQLKGDLTDSQREELKKERAALARK”, the “soluble fraction (log2)” value was found to be 0.153.

Turning to “HMSGITDIITDGKATSRPVVVTDGGHIRVLSPYTSFAIYTLGGMSLPTESRLEPGIYIVVVDSNAVKVAV”, the “soluble fraction (log2)” value was -0.619.

Turning to “HMSMSLQFLSRRIRLQREKRGLKQHDIAHALQISPQAVSKWERGENAPDIALLRPLAGLLGVSIDWLMGGD”, the “soluble fraction (log2)” value was -2.15.

For the sequence “HMAETLRLVGATNLNTLARARHPDDLAARNEFRRAIAQANPALFAGKSKVGSVSLPAGTVLALPPEV”, the “soluble fraction (log2)” value was found to be 0.184.

In the case of “HMGEPVNSPMPGTILRVEVTQGAAVKEGQLLVVLEAMKMENEILAPKDGTVAQVVVQKGSHVETGSPLIVL”, the “soluble fraction (log2)” value is -0.217.

Consider “HMGRHSPLSIEQKEQLKTEIVALQQQRGGGRVTAVNIAELIQQKFNVVYNPNSLYKLLKQIGMSWV”, for which the “soluble fraction (log2)” value was -1.2.

With “HMTAVPADVETVTGFTALDRAGLDTLLARLGLAMDLEDLSFLQAYFRDTERRDPTLTEIRVVDTYWSDH”, the “soluble fraction (log2)” value is -1.38.

Consider “HMETVSFNPDIAVIPDYRHVVILGETTKTIANKYDIPVDILKAANPGLGNNVTKGDRLRVPDKTKLQ”, for which the “soluble fraction (log2)” value came out at 0.155.

As for “HMSYKFDSLAIILNKLDGKETVNVSSLSDELEVSARTVHRYIGTLQVAGFPIEYDKTKNSYIFSEGYTL”, the “soluble fraction (log2)” value is -0.874.

As to “HMSGPDGLTEREIEVLRLLASGLSNRAIGERLYISTNTAANHVRSILLKTGAANRTQAAMYAADHEML”, the “soluble fraction (log2)” value is -1.37.

As for “HMLVYQRLDKDNFIFEGKTLLNDIYKILDIESNYFEAIRGEADSIAGLLLEIAKSIPTINTEF”, the “soluble fraction (log2)” value is -0.171.

For the sequence “HMIISMKKGATPQEISHVRKLIEELGYKVHESQGSERMVFGAIGDERSKHRLTSLEAQPGVEKVIPILA”, the “soluble fraction (log2)” value came to 0.191.

“HMDNPVPVIITDQNFQPQLWKNVGVPTDTLFHELSAANQRKLENLMKTMIQTPLTDNGKISGYAFYSK”: the “soluble fraction (log2)” value is 0.0665.

With “HMAEANTEADFVAIGVRAELLPILQKLGVHTIEQLKGIKATKLFNDIPGMRKKLKLDAVQNPTLQEIEGWL”, the “soluble fraction (log2)” value worked out at 0.00541.

With “HMAHKYYSIMRPVSIGTFPDNGTILGIVNFDTRQMVESIGKMAWGYINYGKPLTEKQISDYELVAE”, the “soluble fraction (log2)” value was -0.451.

For the sequence “HMLALVREQIERNVSNPTDEDIRKIRHDVMEVITRAGADAATVDIAIEIDSQKNILRAIATGATEL”, the “soluble fraction (log2)” value is -0.0114.

Take “HMKQNVEAVIKERAIEKARAQVKAVSTHMALEAQSLSKEQLEFEIERIAAQIIDKMPSDFWND”: the “soluble fraction (log2)” value is -0.386.

With “HMVAGHLQEKNGQFYAVLSYKDTKGKRRTKWVPTGLMVRGNKKRAEAMLNDIRRKFVPPEQED”, the “soluble fraction (log2)” value worked out at 0.0995.
